The results in this text go back to US9688764B2, “Methods of treating breast cancer by administering anti-human prolactin receptor (PRLR) antibodies” (REGENERON PHARMACEUTICALS, INC., priority 2013, dated 2017).

Numbering of substitutions follows the chain as printed.

The labels stand for the following.
B1: H1H6960N: human IgG1 Fc form of H2M6960N; anti-PRLR; HCVR/LCVR SEQ ID NOs 322/330 (antibody, V domains shown)
VH: EVQLVESGGGLVKPGGSLRLSCAASGITFSSYSMNWVRQAPGKGLEWVSSISTRSSLIHYADSVKGRFTISRDNAKNSLYLQMNSLRDEDTAVYYCARWDAAAAFDYWGQGTLVIVSS
VL: DIQLTQSPSFLSASVGDRVTITCWASQGISSYLAWYQQKPGKAPKLLIYVASTLQSGVPSRFSGSGSGTEFTLTISSLQPEDFATYFCQQLNSYPLTFGGGTKVEIK
modifications: human IgG1 Fc
B2: H1H6966N: human IgG1 Fc form of H2M6966N; anti-PRLR; HCVR/LCVR SEQ ID NOs 338/346 (antibody, V domains shown)
VH: QVQLVQSGAEVQKPGASVKVSCKVSGYTLTALSIHWVRQAPGKGLEWMGNFDPGDGETIHAQKFQGRVTMTGDTSTDTAYMELSSLRSEDTAVYYCVGVTFDYWGQGTLVTVSS
VL: EIVMTQSPATLSVSPGERATLSCRASQSVASNLAWYQQKPGQAPRLLLYGASTRATGIPARFSGSGSGTEFTLTISSLQSEDFALYYCQHYNNWPLTFGGGTKVEIK
modifications: human IgG1 Fc
B3: H1H6967N: human IgG1 Fc form of H2M6967N; anti-PRLR; HCVR/LCVR SEQ ID NOs 354/362 (antibody, V domains shown)
VH: EVQLVESGGDLVHPGRSLRLSCAASGFPFDEYAMHWVRQVPGKGLEWVSGISWSNNNIGYADSVKGRFTISRDNAKNSLYLQMNSLRPEDTAFYYCAKSGIFDSWGQGTLVTVSS
VL: B2 VL with A30S, S31R, N32D, L48I, Y49H, T69A, T74I, L85V, H90Q
modifications: human IgG1 Fc
B4: H1H6959N2: human IgG1 Fc form of H2M6959N2; anti-PRLR; HCVR/LCVR SEQ ID NOs 306/314 (antibody, V domains shown)
VH: EVQLVESGGGLVQPGRSLRLSCAASGFTFDDYAMHWVRQAPGKGLEWVSGISWHSGIIGYADSVKGRFTISRDNAKNSLYLQMNSLRTEDAALYYCAKIGSYFYFDSWGQGTLVTVSS
VL: EIVLTQSPGTLSLSPGERATLSCRASQSVSSNYLAWYQQKPGQAPRLLIYGASSRATGIPDRFSGSGSGTDFTLTISRLEPEDFAVYYCQQFGSSGYTFGQGTNLEIK
modifications: human IgG1 Fc
B5: H1H6958N2: human IgG1 Fc form of H2M6958N2; anti-PRLR, receptor blocking; HCVR/LCVR SEQ ID NOs 290/298 (antibody, V domains shown)
VH: QVQLVESGGGVVQPGRSLRLSCGASGFTFRNYGMQWVRQGPGKGLEWVTLISFDGNDKYYADSVKGRFTISRDNSKNTLFLQMNSLRTEDTAVYYCARGGDFDYWGQGTLVTVSS
VL: DIQMTQSPSSLSASVGDRVTITCRASQDIRKDLGWYQQKPGKAPKRLIYAASSLHSGVPSRFSGSGSGTEFTLTISSLQPEDFATYYCLQHNSYPMYTFGQGTKLEIK
modifications: human IgG1 Fc

mfPRLR.mmh (monomeric macaca fascicularis PRLR), sequence (as listed by the source): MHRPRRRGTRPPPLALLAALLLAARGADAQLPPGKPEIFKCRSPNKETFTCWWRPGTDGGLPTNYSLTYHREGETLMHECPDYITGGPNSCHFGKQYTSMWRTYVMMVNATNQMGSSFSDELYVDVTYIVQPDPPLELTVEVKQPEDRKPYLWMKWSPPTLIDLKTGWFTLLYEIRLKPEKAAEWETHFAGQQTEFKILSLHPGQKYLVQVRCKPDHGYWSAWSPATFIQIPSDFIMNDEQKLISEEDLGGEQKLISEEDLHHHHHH

In the first assay the target is T1, hPRLR.mFc (soluble dimeric human PRLR) (Homo sapiens, UniProt P16471).
T1 construct: dimeric (hPRLR.mFc)
T1 sequence (P16471 with tags, fused parts or gaps): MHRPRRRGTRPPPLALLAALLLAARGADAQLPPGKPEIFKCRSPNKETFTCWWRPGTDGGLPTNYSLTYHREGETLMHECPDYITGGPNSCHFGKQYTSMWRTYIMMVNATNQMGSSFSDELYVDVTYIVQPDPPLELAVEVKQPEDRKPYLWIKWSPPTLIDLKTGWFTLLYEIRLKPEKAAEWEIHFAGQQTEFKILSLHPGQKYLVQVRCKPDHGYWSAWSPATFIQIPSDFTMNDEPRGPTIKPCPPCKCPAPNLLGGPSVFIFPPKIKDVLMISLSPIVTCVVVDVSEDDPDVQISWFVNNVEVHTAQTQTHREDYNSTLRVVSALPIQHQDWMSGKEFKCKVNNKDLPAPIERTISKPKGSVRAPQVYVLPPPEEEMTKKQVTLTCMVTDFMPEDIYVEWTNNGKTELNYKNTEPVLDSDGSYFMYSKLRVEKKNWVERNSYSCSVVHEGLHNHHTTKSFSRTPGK
Kind of assay: Surface plasmon resonance (Biacore T200), mAb-capture format. Particulars: 25° C., antibody-capture format, analyte hPRLR.mFc. It is filed as binding. The essentials: (§1)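 First, IgG1-format antibodies were captured via anti-human Fc on the chip. Next, monomeric hPRLR.mmh or mfPRLR.mmh, or dimeric hPRLR.mFc, was injected. Finally, association and dissociation rates were fitted to 1:1 binding.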
A general note: SPR reads the build-up and loss of mass on a sensor chip optically.
As usually defined, the Kd is a measure of binding affinity in units of concentration. High values mean a looser complex, low ones a tighter complex. With B1, the dissociation constant Kd was found to be 0.141 nM and the T½ turned out to be 324.4 min.

Regarding B2, binding was put at a Kd of 0.0439 nM and the T½ came out at 282.9 min.

Take B3: the Kd was found to be 0.11 nM and the T½ was 259.3 min.

Turning to B4, the affinity, expressed as Kd, was 1.45 nM and the T½ was 22.3 min.

Molecule B5 came in with a dissociation constant (Kd) of 0.0867 nM and a T½ of 315.8 min.

Still in this assay, the particulars now being: 37° C., antibody-capture format, analyte hPRLR.mFc.
For the molecule B1, the affinity, expressed as Kd, was 0.5 nM and the T½ turned out to be 78.7 min.

Molecule B2 had a dissociation constant Kd of 0.0672 nM and a T½ of 91.3 min.

Take B3: binding was characterised by a dissociation constant (Kd) of 0.107 nM and the T½ turned out to be 118.8 min.

Turning to B4, the Kd was determined as 4.51 nM and the T½ is 5.0 min.

In turn, B5 had a Kd of 0.167 nM and a T½ of 83.3 min.

A further assay deals with mfPRLR.mmh (monomeric macaca fascicularis PRLR). Described as above. Particulars: 25° C., antibody-capture format, analyte mfPRLR.mmh. It is filed as binding. The essentials:
as §1
As to B1, the Kd turned out to be 6.2 nM and the T½ came to 19.8 min.

As for B2, the affinity, expressed as Kd, was 0.416 nM and the T½ came to 35.6 min.

Regarding B3, the Kd came out at 3.08 nM and the T½ turned out to be 19.7 min.

Regarding B4, the Kd came to 129 nM and the T½ was found to be 0.7 min.

In turn, B5 displayed a Kd of 1.44 nM and a T½ of 41.3 min.

The assay is the same for the next values; noted with them: 37° C., antibody-capture format, analyte mfPRLR.mmh.
B1 showed a Kd of 14.9 nM and a T½ of 9.0 min.

As for B2, the dissociation constant Kd stood at 0.982 nM and the T½ amounted to 9.6 min.

The molecule B3 displayed a dissociation constant (Kd) of 4.54 nM and a T½ of 7.1 min.

In turn, B4 yielded a dissociation constant (Kd) of 370 nM and a T½ of 0.7 min.

The molecule B5 gave a Kd of 4.08 nM and a T½ of 8.6 min.

The target of a further assay is T2, HEK293/hPRLR (Homo sapiens, UniProt P16471).
T2 construct: HA; expressed in transfected cells; host or cells: HEK293
T2 sequence (P16471 25-622): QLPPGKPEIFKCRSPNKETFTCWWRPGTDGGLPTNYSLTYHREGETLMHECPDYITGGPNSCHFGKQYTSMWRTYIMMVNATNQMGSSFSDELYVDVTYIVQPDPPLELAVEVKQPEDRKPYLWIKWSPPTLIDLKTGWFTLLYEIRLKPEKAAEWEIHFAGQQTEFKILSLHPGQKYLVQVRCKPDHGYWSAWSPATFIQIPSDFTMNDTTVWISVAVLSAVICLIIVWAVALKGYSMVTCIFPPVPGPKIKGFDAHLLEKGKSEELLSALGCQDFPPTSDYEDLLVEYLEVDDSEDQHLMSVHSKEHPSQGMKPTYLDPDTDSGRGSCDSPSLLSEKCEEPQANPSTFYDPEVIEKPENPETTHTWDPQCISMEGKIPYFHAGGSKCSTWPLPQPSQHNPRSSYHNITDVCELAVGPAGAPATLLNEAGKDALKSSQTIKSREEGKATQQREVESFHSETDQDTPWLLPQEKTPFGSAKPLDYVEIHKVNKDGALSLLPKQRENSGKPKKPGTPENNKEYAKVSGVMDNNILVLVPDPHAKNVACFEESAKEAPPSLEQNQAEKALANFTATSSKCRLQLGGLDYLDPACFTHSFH
Kind of assay: FACS cell surface binding.
Settings: not given
The method, then:
(§2) The ability of anti-PRLR antibodies to selectively bind PRLR expressing cell lines was next determined. Human, monkey macaca fascicularis, and mouse PRLR constructs with an HA tag were stably introduced into HEK293 cells via Lipofectamine 2000-mediated transfection methodology. Transfectants (HEK293/hPRLR, HEK293/mfPRLR and HEK293/mPRLR) were selected for at least 2 weeks in complete growth media plus G418.
(§3) Cell surface expression of PRLR on 293/hPRLR cells was assessed via FACS analysis. Briefly, 1×10^5 cells were incubated with 10 μg/ml of Control antibody I, or an isotype control for 30 min on ice in antibody dilution buffer. Following two washes with antibody dilution buffer, cells were incubated with 10 μg/ml of PE conjugated anti-human secondary antibodies for 30 min on ice. Following two additional washes, samples were run on a Hypercyt® cytometer and analyzed in FORECYT™ (IntelliCyt, Albuquerque, N. Mex.). The mean fluorescence intensities (MFI) were expressed as fold change above isotype control levels (background). FACS binding confirmed that Control I selectively bound to 293/hPRLR expressing cells with MFIs that were 30 fold above background (isotype ctrl) levels and less than 2 fold binding on parental cells.
(§4) Next, the anti-PRLR antibodies of the present invention were tested via FACS for selective binding to the engineered overexpressing PRLR HEK293 cell lines, as well as to non-expressing HEK293 cells and a native PRLR expressing cell line (T47D).
B1: the “FACS Cell Binding (Fold Above Background)” value turned out to be 29 Fold Above Background.

With B2, the “FACS Cell Binding (Fold Above Background)” value was 29 Fold Above Background.

In the case of B3, the “FACS Cell Binding (Fold Above Background)” value is 38 Fold Above Background.

Turning to B4, the “FACS Cell Binding (Fold Above Background)” value is 6 Fold Above Background.

In the case of B5, the “FACS Cell Binding (Fold Above Background)” value came out at 35 Fold Above Background.

For another assay, the system named is HEK293 (non-expressing parental cells). As to the kind of experiment: FACS cell surface binding.
Settings: not given
The method, then: as §2, §3, §4
Consider B1, for which the “FACS Cell Binding (Fold Above Background)” value was 1 Fold Above Background.

Take B2: the “FACS Cell Binding (Fold Above Background)” value amounted to 1 Fold Above Background.

As to B3, the “FACS Cell Binding (Fold Above Background)” value worked out at 1 Fold Above Background.

For the molecule B4, the “FACS Cell Binding (Fold Above Background)” value worked out at 1 Fold Above Background.

As to B5, the “FACS Cell Binding (Fold Above Background)” value turned out to be 1 Fold Above Background.

The target in another assay is T3, HEK293/mPRLR (Mus musculus, UniProt Q08501).
T3 construct: HA; expressed in transfected cells; host or cells: HEK293
T3 sequence (Q08501 20-608): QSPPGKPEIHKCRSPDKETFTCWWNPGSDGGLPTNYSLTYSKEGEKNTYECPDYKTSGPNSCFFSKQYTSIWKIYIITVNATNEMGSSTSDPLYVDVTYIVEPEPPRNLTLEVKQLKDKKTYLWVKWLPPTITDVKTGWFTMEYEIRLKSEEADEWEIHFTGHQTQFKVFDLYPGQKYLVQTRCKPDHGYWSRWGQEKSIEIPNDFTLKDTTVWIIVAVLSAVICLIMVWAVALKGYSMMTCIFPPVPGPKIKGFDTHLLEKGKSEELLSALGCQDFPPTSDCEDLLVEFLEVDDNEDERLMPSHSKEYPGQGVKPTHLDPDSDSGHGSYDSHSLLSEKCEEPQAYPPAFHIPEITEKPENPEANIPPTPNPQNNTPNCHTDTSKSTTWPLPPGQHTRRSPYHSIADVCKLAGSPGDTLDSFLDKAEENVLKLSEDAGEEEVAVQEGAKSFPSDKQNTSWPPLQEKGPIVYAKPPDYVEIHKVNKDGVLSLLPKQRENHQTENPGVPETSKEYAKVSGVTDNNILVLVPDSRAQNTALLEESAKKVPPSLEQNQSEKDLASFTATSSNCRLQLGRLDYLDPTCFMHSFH
As to the kind of experiment: FACS cell surface binding.
Settings: not given
The method, then:
as §2, §3, §4
With B1, the “FACS Cell Binding (Fold Above Background)” value amounted to 1 Fold Above Background.

B2: the “FACS Cell Binding (Fold Above Background)” value is given as 1 Fold Above Background.

Take B3: the “FACS Cell Binding (Fold Above Background)” value is 2 Fold Above Background.

B4: the “FACS Cell Binding (Fold Above Background)” value stood at 2 Fold Above Background.

Take B5: the “FACS Cell Binding (Fold Above Background)” value worked out at 1 Fold Above Background.

Another assay addresses T4, T47D (native PRLR expressing cell line) (Homo sapiens, UniProt P16471).
T4 construct: a native PRLR expressing cell line (T47D); endogenous in cells; host or cells: T47D
T4 sequence (P16471 25-622): T2 sequence (P16471 25-622)
Kind of assay: FACS cell surface binding.
Settings: not given
The method, then: as §2, §3, §4
For the molecule B1, the “FACS Cell Binding (Fold Above Background)” value was 33 Fold Above Background.

Regarding B2, the “FACS Cell Binding (Fold Above Background)” value is on record as 31 Fold Above Background.

Regarding B3, the “FACS Cell Binding (Fold Above Background)” value was found to be 41 Fold Above Background.

In the case of B4, the “FACS Cell Binding (Fold Above Background)” value turned out to be 9 Fold Above Background.

As to B5, the “FACS Cell Binding (Fold Above Background)” value was determined as 37 Fold Above Background.
